The record followed here is article PMC10503714.

The assay has as its target stressed NISTmAb monoclonal antibody. In words: AUC; sedimentation velocity at 50,000 rpm and 20°C; c(s) analysis in SEDFIT, by command line operation and repeated by manual operation on the same data; stressed, partially denatured sample.

By stoichiometry N is commonly meant a count of units in the complex or per binding partner.

In the case of stressed NISTmAb monoclonal antibody, the percent of signal in higher aggregates (command line analysis) turned out to be 51.8%, the percent of signal in higher aggregates (manual analysis) was 51.7%, the percent of signal in the dimer peak is 12.5% and the stoichiometry N amounted to 2.
